Molecular target: the single-site mutations V130C and L210C
Test: radioligand binding

## glucagon (from UniProt P01275) (peptide)
  glucagon binding (% of WT): 50%

Source: PMC5492955
